Target: SisCmr7-β (Cmr7 subunit of the S. islandicus Cmr-β complex), dimer (S. islandicus (REY15A))
Experiment: cryo-EM structure

stoichiometry N: 2
Substance: SisCmr7-β (Cmr7 subunit of the S. islandicus Cmr-β complex), dimer (natural protein)
